Experimental data published in article PMC13370696, “Anemia‐associated mutations disrupt the CDIN1‐Codanin1 complex in inherited congenital dyserythropoietic anemia I (CDA‐I) disease” (The Febs Journal, 2026).

B1: CDAN1-interacting nuclease 1 (CDIN1), full length, bacterial (natural protein, human, UniProt Q9Y2V0 1-281, looked up)
chain: MILTKAQYDEIAQCLVSVPPTRQSLRKLKQRFPSQSQATLLSIFSQEYQKHIKRTHAKHHTSEAIESYYQRYLNGVVKNGAAPVLLDLANEVDYAPSLMARLILERFLQEHEETPPSKSIINSMLRDPSQIPDGVLANQVYQCIVNDCCYGPLVDCIKHAIGHEHEVLLRDLLLEKNLSFLDEDQLRAKGYDKTPDFILQVPVAVEGHIIHWIESKASFGDECSHHAYLHDQFWSYWNRFGPGLVIYWYGFIQELDCNRERGILLKACFPTNIVTLCHSIA
notes: CDIN1 (C15orf41), human, full length, 281 amino acids; Eluted from the Im7 column by cleavage with His-tagged Ulp1; plasmid pl21 (TriAltus); The anticipated homodimer mass is printed as 67 kDa; Alone in solution it is mainly a homodimer; also called C15orf41
B2: Codanin1 C-terminus (amino acids 1005-1227), labeled with Alexa Fluor 488 (domain or fragment, human, UniProt Q8IWY9 1005-1227, looked up)
chain: AARGERRGCSRACEHHAPLPSHLISEIKDVLSLAVGPRDPDEGVSPEHLEQLLGQLGQTLRCRQFLCPPAEQHLAKCSVELASLLVADQIPILGPPAQYRLERGQARRLLHMLLSLWKEDFQGPVPLQLLLSPRNVGLLADTRPREWDLLLFLLRELVEKGLMGRMEIEACLGSLHQAQWPGDFAEELATLSNLFLAEPHLPEPQLRACELVQPNRGTVLAQS
modifications: Alexa Fluor 488 covalently attached (carboxylic acid, 2,3,5,6-tetrafluorophenyl ester); site not stated; degree of labeling over 90%
notes: Codanin-1 (CDAN1), human, amino acids 1005-1227, codon-optimized for bacterial expression; Same protein as m2, with the dye; also called fluorescently labeled Codanin1_(Cterm); Codanin1_(Cterm) Alexa Fluor 488
B3: Codanin1 C-terminus (amino acids 1005-1227), bacterial (domain or fragment, human, UniProt Q8IWY9 1005-1227, looked up)
chain: AARGERRGCSRACEHHAPLPSHLISEIKDVLSLAVGPRDPDEGVSPEHLEQLLGQLGQTLRCRQFLCPPAEQHLAKCSVELASLLVADQIPILGPPAQYRLERGQARRLLHMLLSLWKEDFQGPVPLQLLLSPRNVGLLADTRPREWDLLLFLLRELVEKGLMGRMEIEACLGSLHQAQWPGDFAEELATLSNLFLAEPHLPEPQLRACELVQPNRGTVLAQS
notes: Codanin-1 (CDAN1), human, amino acids 1005-1227, codon-optimized for bacterial expression; Eluted from the Im7 column by cleavage with His-tagged Ulp1; plasmid pl21 (TriAltus); Anticipated mass is printed as 25 kDa; also called C-terminal part of Codanin1

Experiments:
[1] = target: B3; test: AUC; sedimentation velocity, 20 °C, 50 000 rpm; 24 uM CDIN1, 24 uM Codanin1_(Cterm), or 1:1 complex at 12 uM each; 20 mM Tris/HCl, 150 mM NaCl, pH 8.0; conditions: both partners purified
[2] = target: the molecule itself; test: SEC-MALS; CDIN1 (2 mg/mL), Codanin1_(Cterm) (2 mg/mL) or the 1:1 complex; Zenix SEC 300 column; 20 mM Tris/HCl, 150 mM NaCl, pH 8.0
[3] = target: B2; test: native gel or EMSA; 1.25 uM Alexa Fluor 488-labeled Codanin1_(Cterm) with 0-20 uM CDIN1 (twofold dilutions); 20 mM Tris/HCl, 150 mM NaCl, 5% glycerol, pH 8.0; 15 min at room temperature; native 10% PAGE, 0.5x TBE, 4 °C; conditions: both partners purified
[4] = target: B1; test: MST; 75 nM Alexa Fluor 488-labeled Codanin1_(Cterm) with 0-5 uM CDIN1; 20 mM Tris/HCl, 150 mM NaCl, 5% glycerol, pH 8.0; 25 °C; Hill equation fit; apparent KD; conditions: both partners purified
[5] = target: B1; test: ITC; Codanin1_(Cterm) (110 uM) titrated into CDIN1 (11 uM) in the cell; 15 °C; 20 mM Tris/HCl, 150 mM NaCl, 5% glycerol, pH 8.0; one-site binding model; conditions: both partners purified

Binder: B1
stoichiometry N [1]: 1 CDIN1:Codanin1_(Cterm)
stoichiometry N [2]: 2
stoichiometry N [3]: 1 CDIN1:Codanin1_(Cterm)

Binder: B2
Kd [4]: 53 ± 8 nM

Binder: B3
Kd [5]: 20 ± 4 nM
